How the values were obtained:
Nop1^83–321 = target: T1, Nop1^83–321 (S. cerevisiae, UniProt P15646 83-321); assay: SEC
T1 sequence (looked up): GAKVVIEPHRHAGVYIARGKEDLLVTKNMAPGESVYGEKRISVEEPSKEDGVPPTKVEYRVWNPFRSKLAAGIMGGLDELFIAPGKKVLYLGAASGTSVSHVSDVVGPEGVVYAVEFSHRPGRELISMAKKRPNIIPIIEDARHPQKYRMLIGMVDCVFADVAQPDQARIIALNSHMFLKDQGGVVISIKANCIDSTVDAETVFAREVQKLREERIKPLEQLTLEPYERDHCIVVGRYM

Sc Nop1^83–327 = target: T2, Sc Nop1^83–327 (S. cerevisiae, UniProt P15646 83-327); assay: SEC
T2 sequence (looked up): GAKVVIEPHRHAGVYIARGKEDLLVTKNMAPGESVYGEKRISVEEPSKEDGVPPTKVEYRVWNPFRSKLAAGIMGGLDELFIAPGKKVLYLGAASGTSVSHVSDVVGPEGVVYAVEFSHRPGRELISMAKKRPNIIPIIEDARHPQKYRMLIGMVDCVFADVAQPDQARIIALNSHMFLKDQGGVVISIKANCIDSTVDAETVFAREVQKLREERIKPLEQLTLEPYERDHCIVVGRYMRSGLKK

Binder	binding result (Nop1^83–321)	binding result (Sc Nop1^83–327)
Sc Nop56^1–166 (domain or fragment, S. cerevisiae, UniProt Q12460 1-166, looked up) MAPIEYLLFEEPTGYAVFKVKLQQDDIGSRLKEVQEQINDFGAFTKLIELVSFAPFKGAAEALENANDISEGLVSESLKAILDLNLPKASSKKKNITLAISDKNLGPSIKEEFPYVDCISNELAQDLIRGVRLHGEKLFKGLQSGDLERAQLGLGHAYSRAKVKFS	binds	
Nop56^1–166-Q35A/N39A (domain or fragment, S. cerevisiae, UniProt Q12460 1-166, looked up) MAPIEYLLFEEPTGYAVFKVKLQQDDIGSRLKEVAEQIADFGAFTKLIELVSFAPFKGAAEALENANDISEGLVSESLKAILDLNLPKASSKKKNITLAISDKNLGPSIKEEFPYVDCISNELAQDLIRGVRLHGEKLFKGLQSGDLERAQLGLGHAYSRAKVKFS		binds
Sc Nop56^1–166-L147W/E148F (domain or fragment, S. cerevisiae, UniProt Q12460 1-166, looked up) MAPIEYLLFEEPTGYAVFKVKLQQDDIGSRLKEVQEQINDFGAFTKLIELVSFAPFKGAAEALENANDISEGLVSESLKAILDLNLPKASSKKKNITLAISDKNLGPSIKEEFPYVDCISNELAQDLIRGVRLHGEKLFKGLQSGDWFRAQLGLGHAYSRAKVKFS		binds
